The values below come from article PMC9170038.

The target of the data set is MS2 coat protein, dlFG mutant (Escherichia phage MS2, UniProt P03612, del68-81insG). Put plainly: 4 mM Mg2+; no ligand; RNA-MaP array; 100 mM Tris-HCl pH 7.5, 80 mM KCl, 4 mM MgCl2, 0.1 mg/mL BSA, 1 mM DTT, 0.01 mg/mL yeast tRNA, 0.01% Tween-20; protein 1.5 nM to 3 uM; 37 C (Table S3). The note with it: chain copies: 2; label: tethered by stalled RNA polymerase.

B1: Eterna 7729929 (Exclusion - Tryptophan B) (ssRNA)
RNA: GGAUAGGACACGGCCGCCACUAGCUAGGAUACUAGCAACAUUUCCUCAUCUGAGGAUCACCCAGGUAGGACCGGGUGUCCUAUCG
On to B1, for which binding was characterised by a dissociation constant (Kd) of 563 nM.

B2: Eterna 6411926 (Small Loop Same State NG 1) (ssRNA)
RNA: GUAUUUAGAUAAGGAUAUAAGUCUAUGACAUGAGGAUCACCCAUGUGUGUCUUAGAAGGUAUUUGGGUAAUAUUGUUACAGUAA
Regarding B2, the dissociation constant Kd worked out at 44.2 nM.

B3: Eterna 6079023 (Exclusion 4) (ssRNA)
RNA: UUCACGUCAGGAUAUCCAUAUUUCCGAAAUAACGGUACUUUGGAGAAGGGACAUGAGGAUCACCCAUGUCCUCG
Consider B3, for which the equilibrium dissociation constant (Kd) came out at 17.9 nM.

B4: Eterna 6429368 (Inverted Exclusion NG 2) (ssRNA)
RNA: AUGUCUUAGUAGAAGGGACAUCGGCUGGUAAGCAUCAUCUCCUUCUCACAUGAGGAUCACCCAUGUCAGGAUAUACUAAGAUAC
B4 displayed a dissociation constant Kd of 12.8 nM.

B5: Eterna 9759 (Exclusion 4) (ssRNA)
RNA: GUCGAGUGAGGAUAUGGUGAGUAGUGCCUGAGCGCUGCUCACCAGAAGGCACAUGAGGAUCACCCAUGUAUAGC
The molecule B5 had a Kd of 16.7 nM.

B6: Eterna 6430991 (Inverted Small Loop Exclusion NG 1) (ssRNA)
RNA: CCUCGCUGUUAGAAGGCACCUUCGGCUUUGGCUUUUGGAGUUGGGCGAUGGUGAGGAUAUAACAUGAGGAUCACCCAUGUUCAA
In turn, B6 returned a Kd of 9.79 nM.

B7: Eterna 6389671 (Inverted Exclusion NG 2) (ssRNA)
RNA: ACUUGUAAGUAGAAGGUAGUCAUUAUAUUAAUCAUGUAAACAUGAGGAUCACCCAUGUAGAGUACUAAGGAUAUACAUCGAUAG
Take B7: the dissociation constant Kd turned out to be 15.2 nM.

B8: Eterna 7765403 (Exclusion - FMN A) (ssRNA)
RNA: AGUGAUGUAUGGCGGUUUGUCACUUAAAAUCAGGAUAUAUAAACAAAUAGAAGGGAUGGCGGAGUGAUGUUCCGCCGGCCGCCAU
Take B8: the Kd was greater than 3000 nM.

B9: Eterna 7692300 (Exclusion - FMN B) (ssRNA)
RNA: UGGGCUGCCUGAGGAUAUAGAGACGAGUGAUGUUCGUGGAUAAGAGCCAGUGAUGUUGGGUUAUUUCUAGAAGGCGGGCGAACUU
In the case of B9, the Kd is greater than 3000 nM.

B10: Eterna 15621 (Same State 1) (ssRNA)
RNA: GCAUCACAUGAGGAUCACCCAUGUCUUCGGAGCGGAGGAUAUGGUCACUGUAAACAGUGGCCAGAAGGCUGGAUGC
Take B10: the affinity, expressed as Kd, was 32.4 nM.

B11: Eterna 7720377 (Same State - Arginine B) (ssRNA)
RNA: GCCUAGCAGGGAAGGAGCGGCAUAAGCAUAGAUAAUAUGCAGUUAGUGAUGUUAAUACUAUGCCAGGUAGGUCGCCCUGCUAGGC
In turn, B11 gave a Kd greater than 3000 nM.

B12: Eterna 7682639 (Same State - Theophylline A) (ssRNA)
RNA: GAAGGUCAAAGACCUUCGUGCACAUCUGAUACCAGUCGCGAAAGCGACCCUUGGCAGCAGGGCAGUGAUGUUGCCAGUGCACAAA
As for B12, the Kd is greater than 3000 nM.

B13: Eterna 7627109 (Same State - Theophylline A) (ssRNA)
RNA: CUCCGAGGCUAUACUAUCCGCCUCUGUGAUACCAGAAUACCUAUAUUCCCUUGGCAGCAUCACAUGAGGAUCACCCAUGUGCCAU
As for B13, the Kd stood at 13.2 nM.

B14: Eterna 6084857 (Exclusion 6) (ssRNA)
RNA: UCAAAUACUGAGGAUAUAACGACUGAAUCCGCGUUAGAAGGUAGUACAUGAGGAUCACCCAUGUCAACCAGAGG
As to B14, the equilibrium dissociation constant (Kd) was determined as 17.2 nM.

B15: Eterna 7637577 (Same State - Tryptophan B) (ssRNA)
RNA: GUAGCUAUCGCGGCCGCCACUAAACCGGAAACGGAACAGGAGGAUCACCCUUGUGGCGAAAGCCAUAGGACCGGGCGAUAGCUAC
Molecule B15 registered a Kd of 483 nM.

B16: Eterna 6443759 (Same State NG 2) (ssRNA)
RNA: AUUAUAAUUGAAGGAUAUCUAUAUCCAACAUGAGGAUCACCCAUGUUGAGGAUCACCCAUGUAAAGGAGAAGGUUAAUUAUAAU
B16 yielded a Kd of 101 nM.

B17: Eterna 7690461 (Exclusion - Theophylline A) (ssRNA)
RNA: UAAUUUAUGUCUUUAAUAUAAUAAUCAGAUACCAGUGAUUUAUGACACCCUUGGCAGCUGUAUAGAGUGAUGUUCUUAUACAUAA
The molecule B17 showed a Kd greater than 3000 nM.

B18: Eterna 6457182 (Inverted Small Loop Same State NG 1) (ssRNA)
RNA: CGUCUAUGCAAGAAGGCAUGAAACAUGAGGAUCACCCAUGUCAAAGACAUGAGGAUAUUGCAUAGACGAAAAGUGCGAAAGCAC
As to B18, the Kd came to 4.44 nM.

B19: Eterna 7753129 (Same State - Arginine B) (ssRNA)
RNA: GGGUUGAACUGAAGGAGCGAGAAAUAGAAAGUAAGAAGAUAAGCUAGUGAUGUUAGAAAUUCUCAGGUAGGUCGCAGUAAGAAUU
In turn, B19 gave a Kd greater than 3000 nM.

B20: Eterna 7726887 (Same State - Arginine A) (ssRNA)
RNA: AAUACCUGAGUGAUGUUCAGGGAAUCAGAAGGAGCGUCAAUUAUGACAGGUAGGUCGCUGAAGACAUGUGUGUAUACACAUGUCC
B20 came in with a Kd greater than 3000 nM.

B21: Eterna 7712973 (Exclusion - Theophylline A) (ssRNA)
RNA: AGACCUCAGUGAUGUUGAGGUAACACUGAUACCAGCGACUUAAUUCGCCCUUGGCAGCAGUCCACCGAGGUAUCUGAUUAGGUCA
On to B21, for which the Kd is greater than 3000 nM.

B22: Eterna 6424838 (Exclusion NG 2) (ssRNA)
RNA: GCCGGUUCCCUAGGAUAUGUACAUGAGGAUCACCCAUGUGCCUCUAGAGCCGGAACAGGGCAUGUACAGAAGGAGGGUCGACCC
The molecule B22 registered a dissociation constant (Kd) of 7.13 nM.

B23: Eterna 7730362 (Exclusion - Arginine B) (ssRNA)
RNA: GGACUAACCAGAAGGAGCGGCGCGCAGAAACUGCUAAUUCCUCCGCACGAGGAUCACCCGUGUCAGGUAGGUCGCUGGUUAGUCG
On to B23, for which the Kd came out at 10 nM.

B24: Eterna 11587 (Sensor for hsa-mir-208a) (ssRNA)
RNA: AUUUAACAAGCUUUUUGCUCGUCUUAUAAACAUGAGGAUCACCCAUGUAAUAGCGUGAGAGUAAAUAAUUUAAUAAU
The molecule B24 showed an equilibrium dissociation constant (Kd) of 11.3 nM.

B25: Eterna 7729660 (Same State - Arginine B) (ssRNA)
RNA: ACGAAGGAUGGAAGGAGCGCUCGUCAGUCCUGCGAGUGAUGUUCGUGGGUAAAUAGUCGCGAGCAGGUAGGUCGCCAUCUUGAGC
Molecule B25 yielded a Kd greater than 3000 nM.

B26: Eterna 7710839 (Same State - Theophylline A) (ssRNA)
RNA: UAAUAAAUAAAUCCAAGGUGAAGGUCAGAUACCAGCCAGAUAACUGGCCCUUGGCAGCUGAAUAAGCUUGAGGAUCACCCAAGUA
B26 had a dissociation constant Kd of 36.1 nM.

B27: Eterna 7690543 (Exclusion - Theophylline B) (ssRNA)
RNA: AUUUAAUUAACUGAUACCAGACUUUAUGUAUUUAUUAAAACUAGUGAUGUUAGUUUAUCUGUCCCUUGGCAGCAGUUUCUACUUA
B27 returned a Kd greater than 3000 nM.

B28: Eterna 7710140 (Exclusion - Tryptophan A) (ssRNA)
RNA: AGCUCGCAAUCCUCAGCGUCAAAGACGCGUCGAGGACCGGUACGGCCGCCACUCGACAAGAGGAUCACCCUUGUCUAAGCGAGCA
As to B28, the Kd was 330 nM.

B29: Eterna 6456627 (Same State NG 3) (ssRNA)
RNA: GCGCCUCAGAACAUGAGGAUCACCCAUGUGCUGCGGGCGCCGUAGGAUAUGAUGGUACGCUACCAUCAGAAGGAUGAUGGUACC
B29 had a Kd of 4.99 nM.

B30: Eterna 6420697 (Small Loop Exclusion NG 3) (ssRNA)
RNA: AUCGUUGACUGGACGAGAAUAGGGCAGGAUAUACAUGAGGAUCACCCAUGUGAAGCACGAAAGAGGUAGAAGGGCCCACGUCAU
B30: the affinity, expressed as Kd, was 16.1 nM.

B31: Eterna 7716236 (Same State - Tryptophan B) (ssRNA)
RNA: GCGCGGCAGGCGGCCGCCACUCUGACGAGCCACAGUGAUGUUGUGGUCGGAGAAACGUCUUCAUAGAGGACCGGGUUUGUUGUUC
As to B31, the dissociation constant (Kd) is greater than 3000 nM.

B32: Eterna 6430949 (Inverted Small Loop Exclusion NG 1) (ssRNA)
RNA: GGGACCUACGAGAAGGGCUACAUGAGGAUCACCCAUGUAAAUCUUCGGGUGGCAGGAUAUCGGCGGCUACAGGAGGGCCAGGUC
Molecule B32 returned a Kd of 8.57 nM.

B33: Eterna 7690487 (Same State - Theophylline B) (ssRNA)
RNA: UGUCAUUGGUCUGAUACCAGUUAGACCGAUAGGUCAAAACUGGAGUGAUGUUCCCAAAAUAACCCUUGGCAGCAGACCGAUGACU
As for B33, the Kd was greater than 3000 nM.

B34: Eterna 7708077 (Same State - FMN A) (ssRNA)
RNA: UUUUACGAGUGAUGUUCGUAAUGUAAUAGUUAGGAUAUCGUUUUUUCGAGAAGGAACUUCGAAGUGAUACGAAAGUAUCGCUUCG
Take B34: the dissociation constant Kd was greater than 3000 nM.

B35: Eterna 6049957 (Exclusion 6) (ssRNA)
RNA: CUGAGUAGUCAGGAUAUGUGGUACAAAAGUACUGCAGAAGGGAUUACAUGAGGAUCACCCAUGUUUUCUUCAUG
Molecule B35 showed a Kd of 52 nM.

B36: Eterna 7691153 (Same State - Arginine B) (ssRNA)
RNA: AAUGCAUAGUGAAGGAGCGCGAUUUGCAGUGAUGUUGCAAAUUUAAACAAUCUUAUCUUUUCGCAGGUAGGUCGCACUAUGCAUA
Consider B36, for which the equilibrium dissociation constant (Kd) was greater than 3000 nM.

B37: Eterna 6056927 (Brourd's mod of Exclusion 4) (ssRNA)
RNA: GGUCCUUCUGUUAGGAUAUGCUAUGGGCUUCCGCAGUAGAAGGAACAUGAGGAUCACCCAUGUCCGAUGCCGUA
With B37, the dissociation constant Kd stood at 67.5 nM.

B38: Eterna 7652494 (Same State - Tryptophan B) (ssRNA)
RNA: AGUAGACACGCGGCCGCCACUUGAGGAUCACCCAGGUGGUGUGUACUUGAAAACAAGUGCACAUCAAGGACCGGGCGUGUCUACA
Regarding B38, binding was characterised by a dissociation constant (Kd) of 12.7 nM.

B39: Eterna 7687680 (Same State - Theophylline A) (ssRNA)
RNA: AUUGAUAUAUAUAUUUGAUUUUUAUGUGAUACCAGACAAGGCAUAGUCCCUUGGCAGCACUUUAUAUUUACGAGUGAUGUUCGUA
B39 came in with a Kd greater than 3000 nM.

By Kd is commonly meant the free concentration of one partner at which half of the binding sites on the other are occupied at equilibrium, for simple one-to-one binding. Read a low Kd as a tighter complex.
